In PMC12820974, “Zinc-Mediated Loading and Release of His-Tagged Recombinant Proteins in Self-Assembling Peptide Coacervates” (ACS Applied Bio Materials, 2025):

Columns and labels:
[1] = target: EAKH6 self-assembling peptide (EAK16-II with a C-terminal hexa-histidine tag)
[2] = target: EAKH6 self-assembling peptide (EAK16-II with a C-terminal hexa-histidine tag); remark: listed apart in the source
[3] = target: the molecule itself; assay: Congo red staining (fluorescence microscopy and UV-vis absorbance); EAKH6 alone and with Zn2+ at molar ratios 1:20 to 20:1, incubated with Congo red in PBS overnight at room temperature; fibrils imaged, shift of absorbance from 500 to 540 nm

Molecule: Green Fluorescent Protein coexpressed with a hexahistidine tag
- in vitro release of HisGFP from Ca2+:EAKH6 (10:1, without Zn2+) coacervates, control; released in 5 days [1]: 98%
- apparent diffusion (D app) of HisGFP out of Ca2+:EAKH6 coacervates (without Zn2+), control, from the release up to 8 h [2]: 2.07e-11 m^2 s^-1
- apparent diffusion (D app) of HisGFP out of Zn2+:EAKH6 coacervates, from the release up to 8 h [2]: 6.7e-12 m^2 s^-1

B1: EAKH6 self-assembling peptide (EAK16-II with a C-terminal hexa-histidine tag) (peptide)
peptide: Ac-AEAEAKAKAEAEAKAKHHHHHH-NH2
notes: hexa-histidine tag (H6) at the C-terminus; written as a part because Zn2+ bridges it to the His tag of the cargo protein; In the assays the peptide stood as self-assembled fibrils (coacervate), with ZnCl2 or CaCl2 where said; also called Zn2+:EAKH6 (its coacervate with zinc); Ca2+:EAKH6 (with calcium); source: synthetic peptide, custom-synthesized by Biomatek (>95% purity by HPLC)
- binding result [3]: binds
